This passage reports activity (units per gram wet cells) and activity (units per gram wet cell paste) results from US20090280528.

Data set [1] concerns T1, NruI restriction endonuclease (recombinant) (Nocardia rubra).
T1 sequence: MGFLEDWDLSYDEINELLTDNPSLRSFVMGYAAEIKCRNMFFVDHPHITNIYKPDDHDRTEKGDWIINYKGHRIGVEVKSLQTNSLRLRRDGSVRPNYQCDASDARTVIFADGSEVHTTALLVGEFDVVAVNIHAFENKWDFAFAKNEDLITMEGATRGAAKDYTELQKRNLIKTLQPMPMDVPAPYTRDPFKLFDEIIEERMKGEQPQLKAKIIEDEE
The data set is described as follows: cleavage_in_vitro. The note with it: 37 C, 30 min, NEB buffer 2; complete digestion pattern; approximate value.

In data set [2] the test system is T2, Sbo13I restriction endonuclease (Shigella boydii 13).
T2 sequence: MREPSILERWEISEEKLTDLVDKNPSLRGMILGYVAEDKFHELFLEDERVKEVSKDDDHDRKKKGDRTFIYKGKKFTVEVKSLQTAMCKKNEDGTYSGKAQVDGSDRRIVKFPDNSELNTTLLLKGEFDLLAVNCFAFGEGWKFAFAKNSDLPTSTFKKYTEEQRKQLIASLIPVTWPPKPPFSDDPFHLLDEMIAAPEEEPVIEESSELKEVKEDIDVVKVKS
The data set is described as follows: cleavage_in_vitro. The settings on record: 37 C, 10 mM Mg, 55 mM NaCl, pH 7.5; approximate value; lambda DNA assay.

Take Lambda phage DNA: the activity (units per gram wet cells) in data set [1] was 6.5e+06. For the same substance, the activity (units per gram wet cell paste) in data set [2] is 100000.
